Type in all cases: cell-based, Saccharomyces cerevisiae
For assay [1], the system named is BBC1. Description: DHFR-PCA on solid medium, bait BBC1 (Fig. 1B). Conditions: bait BBC1, label = prey; for medrep (log2 median colony size normalized to plate background, PCA score): 2-4 replicates. An excerpt:
(§1) Supplement 41467_2021_21873_MOESM8_ESM.xlsx, sheet "Fig1B" | column: medsize; medrep; Ratio; Score

For assay [2], the system named is BZZ1-1. Description: DHFR-PCA on solid medium, bait BZZ1-1 (Fig. 1B). Conditions: bait BZZ1-1, label = prey; 4 replicates. An excerpt:
Supplement 41467_2021_21873_MOESM8_ESM.xlsx, sheet "Fig1B" | column: medsize; medrep; Score

Assay [3] has as its system ABP1. In words: DHFR-PCA on solid medium, bait ABP1 (Fig. 1B). The note with it: bait ABP1, label = prey; 2-4 replicates.
Text: as §1

Assay [4] has as its system BEM1-2. Description: DHFR-PCA on solid medium, bait BEM1-2 (Fig. 1B). The note with it: bait BEM1-2, label = prey; 2-8 replicates.
Text: as §1

Assay [5] deals with BEM1-1. Description: DHFR-PCA on solid medium, bait BEM1-1 (Fig. 1B). Conditions: bait BEM1-1, label = prey; for medrep (log2 median colony size normalized to plate background, PCA score): 2-8 replicates.
Text: as §1

For assay [6], the system named is BUD14. In words: DHFR-PCA on solid medium, bait BUD14 (Fig. 1B). Conditions: bait BUD14, label = prey; for medrep (log2 median colony size normalized to plate background, PCA score): 4 replicates.
Text: as §1

In assay [7] the test system is BOI2. Description: DHFR-PCA on solid medium, bait BOI2 (Fig. 1B). The note with it: bait BOI2, label = prey; 3-8 replicates.
Text: as §1

Assay [8] concerns 575 putative partners (preys) of 22 WT SH3-containing proteins. Description: DHFR-PCA on solid medium, WT and SH3-deleted baits (Fig. 1B). Also on record: key to Score: 0: SH3-independent; 1: SH3-dependent PPIs; 2: SH3-inhibited PPIs. Conditions: for medrep (log2 median colony size normalized to plate background, PCA score): bait SLA1-3, DHFR-PCA, label = prey, Replicates 4 (2 for YCR009C, YDR388W, YIL033C); for Score: bait SLA1-3, label = prey. The method, boiled down:
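In S. cerevisiae, 22 SH3-containing baits fused genomically to DHFR F[1,2], either WT or with each SH3 replaced via CRISPR by a poly-Gly/Ser linker, screened against 575 DHFR F[3] preys plus 40 negative controls in 1536 arrays, preys duplicated at randomized positions.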

In assay [9] the test system is Hua2. In words: Deep mutational scanning of Abp1 SH3, Abp1-Hua2 DHFR-PCA (DMS score). Conditions: for HUA2_MTX2 (frequencies normalized to the reference condition): Abp1-Hua2 DHFR-PCA, MTX2; for hua2sc (DMS score): Hua2, frequencies scaled to the synonymous mutation distribution (DMS score). The method, boiled down:
(§2)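 Sequencing of the genomic SH3 locus before and after two rounds of liquid DHFR-PCA selection (72 h, 30 °C each) gave the score. Mutants covering every codon of the domain were expressed from the native ABP1 locus in diploids carrying DHFR-tagged prey.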

The test system of assay [10] is Lsb3. Description: Deep mutational scanning of Abp1 SH3, Abp1-Lsb3 DHFR-PCA (DMS score). Conditions: for LSB3_MTX2 (frequencies normalized to the reference condition): Abp1-Lsb3 DHFR-PCA, MTX2; for lsb3sc (DMS score): Lsb3, frequencies scaled to the synonymous mutation distribution (DMS score). The method, boiled down: as §2
For assay [11], the system named is Hua2 and Lsb3. Description: Deep mutational scanning of Abp1 SH3: combined class (quadrant) from Abp1-Hua2 and Abp1-Lsb3 DHFR-PCA. The note with it: class by DMS scores with Hua2 and Lsb3 (Neutral, Dest. both, Dest. Hua2, Dest. Lsb3).
The subject of assay [12] is BOI1. In words: DHFR-PCA on solid medium, bait BOI1 (Fig. 1B). Conditions: bait BOI1, label = prey; 3-8 replicates.
Text: as §1

The mark [13] stands for this setting: only significant differences showed, PPIs completely lost have a ratio of 0.1 and the gained PPIs 2.5.

Experimental findings from publication PMC7954794, “Protein context shapes the specificity of SH3 domain-mediated interactions in vivo” (Nature Communications, 2021) are described below.

B1: YHR114W (protein, UniProt P38822 1-633, looked up)
Protein BZZ1: MSADLSIGNEIKDSFKETHKWVQNNLKWLKDIEQFYRERAKLEKDYSERLSRLSAEYFNKKSSTSVPISVGDTPTTTPGSIEAAGVVAWNEILSQTDMISKDHDQLSTDFENHVANQLSGLFTKLDMTLSKINGFNNDMVNKKDNIYHELEKAKKDYDEACSTMEMARNRYTKASNDRNKKKLDEKEMEMNKCKNEYLIKINQANRTKDKYYFQDVPEVLDLLQDVNEAKTLFLNDLWLKAASVENDLGANVSKRLQAANSVVKQNKPSLNTAIFIKHNLKNWKEPQDFVYKPSPVWHDDEKFAVPSSLEVEDLRIKLAKAENDYNSLQDKTQNELSKLSTLNKIKHEMKTNEDNINATKFYDTLKEYLNVVSPFTSHETLKLQAEVQIESIQNNVPEEYDLSTDNIDLSKTKKKSGIFSKFKHNILNVDSKPSSGGSTGNGNGGPLHITSLFNTSRRTRLGSAPNNAGEDSDNNSIRTTSTNNTKKTTQNSSDDGKNKVLYAYVQKDDDEITITPGDKISLVARDTGSGWTKINNDTTGETGLVPTTYIRISSAATVKANDRGPAPEVPPPRRSTLPVRTMEAIYAYEAQGDDEISIDPGDIITVIRGDDGSGWTYGECDGLKGLFPTSYCK
For B1, the “medrep (log2 median colony size normalized to plate background, PCA score)” value amounted to 1.475 in assay [1], 4.137 in assay [2] and 3.834 in assay [3]. For the same molecule, the “Ratio (SH3-deleted/WT medrep)” value in [1] (setting [13]) was 0.1.

B2: YHR064C (protein, UniProt P38788 1-538, looked up)
Ribosome-associated complex …: MSSPVIGITFGNTSSSIAYINPKNDVDVIANPDGERAIPSALSYVGEDEYHGGQALQQLIRNPKNTIINFRDFIGLPFDKCDVSKCANGAPAVEVDGKVGFVISRGEGKEEKLTVDEVVSRHLNRLKLAAEDYIGSAVKEAVLTVPTNFSEEQKTALKASAAKIGLQIVQFINEPSAALLAHAEQFPFEKDVNVVVADFGGIRSDAAVIAVRNGIFTILATAHDLSLGGDNLDTELVEYFASEFQKKYQANPRKNARSLAKLKANSSITKKTLSNATSATISIDSLADGFDYHASINRMRYELVANKVFAQFSSFVDSVIAKAELDPLDIDAVLLTGGVSFTPKLTTNLEYTLPESVEILGPQNKNASNNPNELAASGAALQARLISDYDADELAEALQPVIVNTPHLKKPIGLIGAKGEFHPVLLAETSFPVQKKLTLKQAKGDFLIGVYEGDHHIEEKTLEPIPKEENAEEDDESEWSDDEPEVVREKLYTLGTKLMELGIKNANGVEIIFNINKDGALRVTARDLKTGNAVKGEL
Take B2: the “medrep (log2 median colony size normalized to plate background, PCA score)” value in assay [4] is listed as 1.993; in [1], 4.121; in assay [5], 1.993; in assay [6], 1.869; in assay [2], 2.391; in [7], 2.6006. Besides, the “medrep (log2 median colony size normalized to plate background, PCA score)” value in assay [8] is 4.584; in assay [3], 4.8359. In addition, the “Ratio (SH3-deleted/WT medrep)” value in assay [5] (setting [13]) and in assay [6] (setting [13]) was 0.1 in each case. Further, in assay [8], the Score is on record as 0.

B3: ABP1 I25I (protein, UniProt P15891 2-592, looked up)
Actin-binding protein: ALEPIDYTTHSREIDAEYLKIVRGSDPDTTWLIISPNAKKEYEPESTGSSFHDFLQLFDETKVQYGLARVSPPGSDVEKIIIIGWCPDSAPLKTRASFAANFAAVANNLFKGYHVQVTARDEDDLDENELLMKISNAAGARYSIQTSSKQQGKASTPPVKKSFTPSKSPAPVSKKEPVKTPSPAPAAKISSRVNDNNDDDDWNEPELKERDFDQAPLKPNQSSYKPIGKIDLQKVIAEEKAKEDPRLVQKPTAAGSKIDPSSDIANLKNESKLKRDSEFNSFLGTTKPPSMTESSLKNDDDKVIKGFRNEKSPAQLWAERKAKQNSGNAETKAEAPKPEVPEDEPEGEPDVKDLKSKFEGLAASEKEEEEMENKFAPPPKKSEPTIISPKPFSKPQEPVKAEEAEQPKTDYKKIGNPLPGMHIEADNEEEPEENDDDWDDDEDEAAQPPLPSRNVASGAPVQKEEPEQEEIAPSLPSRNSIPAPKQEEAPEQAPEEEIEEEAEEAAPQLPSRSSAAPPPPPRRATPEKKPKENPWATAEYDYDAAEDNELTFVENDKIINIEFVDDDWWLGELEKDGSKGLFPSNYVSLGN
modifications: synonymous codon change I25
As for B3, in assay [9], the “HUA2_MTX2 (frequencies normalized to the reference condition)” value stood at 1.723 and the “hua2sc (DMS score)” value came out at 0.1101. In addition, in assay [10], the “LSB3_MTX2 (frequencies normalized to the reference condition)” value is given as 1.319 and the “lsb3sc (DMS score)” value is reported as -0.181. Moreover, the quadrant entry in assay [11] is “Neutral”.

B4: ABP1 N27N (protein, UniProt P15891 2-592, looked up)
Actin-binding protein: ALEPIDYTTHSREIDAEYLKIVRGSDPDTTWLIISPNAKKEYEPESTGSSFHDFLQLFDETKVQYGLARVSPPGSDVEKIIIIGWCPDSAPLKTRASFAANFAAVANNLFKGYHVQVTARDEDDLDENELLMKISNAAGARYSIQTSSKQQGKASTPPVKKSFTPSKSPAPVSKKEPVKTPSPAPAAKISSRVNDNNDDDDWNEPELKERDFDQAPLKPNQSSYKPIGKIDLQKVIAEEKAKEDPRLVQKPTAAGSKIDPSSDIANLKNESKLKRDSEFNSFLGTTKPPSMTESSLKNDDDKVIKGFRNEKSPAQLWAERKAKQNSGNAETKAEAPKPEVPEDEPEGEPDVKDLKSKFEGLAASEKEEEEMENKFAPPPKKSEPTIISPKPFSKPQEPVKAEEAEQPKTDYKKIGNPLPGMHIEADNEEEPEENDDDWDDDEDEAAQPPLPSRNVASGAPVQKEEPEQEEIAPSLPSRNSIPAPKQEEAPEQAPEEEIEEEAEEAAPQLPSRSSAAPPPPPRRATPEKKPKENPWATAEYDYDAAEDNELTFVENDKIINIEFVDDDWWLGELEKDGSKGLFPSNYVSLGN
modifications: synonymous change N27N in SH3 domain
As for B4, in assay [9], the “HUA2_MTX2 (frequencies normalized to the reference condition)” value was 1.61 and the “hua2sc (DMS score)” value is given as -0.002773. In addition, in [10], the “LSB3_MTX2 (frequencies normalized to the reference condition)” value came to 1.694 and the “lsb3sc (DMS score)” value is given as 0.1932. In addition, the quadrant result in assay [11] was “Neutral”.

B5: YIL033C (protein, UniProt P07278 2-416, looked up)
cAMP-dependent protein kinase …: VSSLPKESQAELQLFQNEINAANPSDFLQFSANYFNKRLEQQRAFLKAREPEFKAKNIVLFPEPEESFSRPQSAQSQSRSRSSVMFKSPFVNEDPHSNVFKSGFNLDPHEQDTHQQAQEEQQHTREKTSTPPLPMHFNAQRRTSVSGETLQPNNFDDWTPDHYKEKSEQQLQRLEKSIRNNFLFNKLDSDSKRLVINCLEEKSVPKGATIIKQGDQGDYFYVVEKGTVDFYVNDNKVNSSGPGSSFGELALMYNSPRAATVVATSDCLLWALDRLTFRKILLGSSFKKRLMYDDLLKSMPVLKSLTTYDRAKLADALDTKIYQPGETIIREGDQGENFYLIEYGAVDVSKKGQGVINKLKDHDYFGEVALLNDLPRQATVTATKRTKVATLGKSGFQRLLGPAVDVLKLNDPTRH
Turning to B5, the “medrep (log2 median colony size normalized to plate background, PCA score)” value in [4] was 1.8558; in assay [1], 2.137; in assay [12], 2.0471; in assay [5] it was 1.8558; in assay [6], 1.967; in [2], 2.099. The results for the “medrep (log2 median colony size normalized to plate background, PCA score)” value in assay [7], in [8] and in [3] were 1.723, 2.8 and 3.25, respectively. For the same molecule, the Score in assay [8] turned out to be 0.
